Measured values from US20250339531A1 (FRED HUTCHINSON CANCER CENTER, published 2025).

Assays:
[1] = biological target: T1, 3×MYC-STAT1-S727E phosphorylated at Y701 with JAK1 kinase (UniProt P42224 1-750, phosphorylated at Y701 with JAK1 kinase); test: anti-FLAG IP of in vitro translated proteins, with JAK1 treatment, western
T1 construct: In vitro translated in rabbit reticulocyte lysate; not shown: 3×MYC tag
T1 sequence (looked up): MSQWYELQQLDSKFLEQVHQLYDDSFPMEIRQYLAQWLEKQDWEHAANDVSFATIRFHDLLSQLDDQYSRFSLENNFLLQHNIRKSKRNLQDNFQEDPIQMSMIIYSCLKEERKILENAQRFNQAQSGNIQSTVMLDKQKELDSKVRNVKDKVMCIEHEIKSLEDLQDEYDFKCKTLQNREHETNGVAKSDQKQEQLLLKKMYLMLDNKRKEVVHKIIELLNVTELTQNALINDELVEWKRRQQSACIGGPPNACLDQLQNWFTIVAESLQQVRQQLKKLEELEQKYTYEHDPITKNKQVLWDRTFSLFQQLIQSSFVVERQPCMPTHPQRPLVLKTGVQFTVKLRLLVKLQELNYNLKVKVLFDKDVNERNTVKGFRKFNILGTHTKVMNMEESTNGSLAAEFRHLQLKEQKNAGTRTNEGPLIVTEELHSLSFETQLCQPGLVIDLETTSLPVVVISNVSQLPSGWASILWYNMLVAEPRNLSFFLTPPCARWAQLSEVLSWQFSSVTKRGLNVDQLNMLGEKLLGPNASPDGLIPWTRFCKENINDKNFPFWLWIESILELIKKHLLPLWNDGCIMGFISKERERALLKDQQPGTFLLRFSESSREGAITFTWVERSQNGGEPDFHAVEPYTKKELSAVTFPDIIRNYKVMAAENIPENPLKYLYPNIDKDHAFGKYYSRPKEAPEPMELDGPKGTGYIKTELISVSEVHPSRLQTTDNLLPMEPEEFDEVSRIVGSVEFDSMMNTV

[2] = biological target: T2, 3×MYC-STAT1-S727E (UniProt P42224 1-750); test: anti-FLAG IP of in vitro translated proteins, without JAK1 treatment, western
T2 construct: In vitro translated in rabbit reticulocyte lysate; also called phospho-mimic STAT1-S727E; not shown: 3×MYC tag
T2 sequence (looked up): T1 sequence (looked up)

B1: i3XFLAG-NLS-CTDaa154-424 (other)
chain: MDYKDHDGDYKDHDIDYKDDDDKPPKRMRREPKKKRKVGRAPAQAGGLCSAAPGGGHPAPSWVAFAHTGAWGTGLPAPHVPCAPGALPQGAFVSQAARAAPALQPSQAAPAEGISQPAPARGDFAYAAPAPPDGALSHPQAPRWPPHPGKSREDRDPQRDGLPGPCAVAQPGPAQAGPQGQGVLAPPTSQGSPWWGWGRGPQVAGAAWEPQAGAAPPPQPAPPDASASARQGQMQGIPAPSQALQEPAPWSALPCGLLLDELLASPEFLQQAQPLLETEAPGELEASEEAASLEAPLSEEEYRALLEEL
notes: Doxycycline-induced in MB135 cells for co-IP; also called longCTD; iDUX4-CTD
[1]
  binding result: no binding
[2]
  binding result: no binding
